Results: US7264932B2, “Nuclease inhibitor cocktail” (Applera Corporation, priority 1999, dated 2007)

T1: bovine RNase A (Bos taurus, UniProt P61823)
T1 sequence (P61823 27-150): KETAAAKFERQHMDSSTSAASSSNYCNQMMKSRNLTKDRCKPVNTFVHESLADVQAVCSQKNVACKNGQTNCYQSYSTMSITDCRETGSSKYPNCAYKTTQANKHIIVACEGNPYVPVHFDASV

B1: PK: proteinase K, protease that digests RNase proteins to peptide fragments (protein, UniProt P06873 106-384, looked up)
Proteinase K: AAQTNAPWGLARISSTSPGTSTYYYDESAGQGSCVYVIDTGIEASHPEFEGRAQMVKTYYYSSRDGNGHGTHCAGTVGSRTYGVAKKTQLFGVKVLDDNGSGQYSTIIAGMDFVASDKNNRNCPKGVVASLSLGGGYSSSVNSAAARLQSSGVMVAVAAGNNNADARNYSPASEPSVCTVGASDRYDRRSSFSNYGSVLDIFGPGTSILSTWIGGSTRSISGTSMATPHVAGLAAYLMTLGKTTAASACRYIADTANKGDLSNIPFGTVNLLAYNNYQA
B2: RIP: human placental RNase Inhibitor Protein (protein, UniProt P13489 2-461, looked up)
Ribonuclease inhibitor: SLDIQSLDIQCEELSDARWAELLPLLQQCQVVRLDDCGLTEARCKDISSALRVNPALAELNLRSNELGDVGVHCVLQGLQTPSCKIQKLSLQNCCLTGAGCGVLSSTLRTLPTLQELHLSDNLLGDAGLQLLCEGLLDPQCRLEKLQLEYCSLSAASCEPLASVLRAKPDFKELTVSNNDINEAGVRVLCQGLKDSPCQLEALKLESCGVTSDNCRDLCGIVASKASLRELALGSNKLGDVGMAELCPGLLHPSSRLRTLWIWECGITAKGCGDLCRVLRAKESLKELSLAGNELGDEGARLLCETLLEPGCQLESLWVKSCSFTAACCSHFSSVLAQNRFLLELQISNNRLEDAGVRELCQGLGQPGSVLRVLWLADCDVSDSSCSSLAATLLANHSLRELDLSNNCLGDAGILQLVESVRQPGCLLEQLVLYDIYWSEEMEDRLQALEKDKPSLRVIS

How the values were obtained:
[1] = tested on: total RNase activity in murine kidney plus pancreatic lysate; test: Proteinase K inactivation of total RNase activity in kidney lysate with pancreatic lysate; assay type: biochemical; conditions: 600 ng/uL PK
Experimental: Murine kidney (40 ul of 0.1 mg/ul) was introduced into a 50 uL reaction with a dilute pancreatic lysate (1 or 10 ul of pancreas at 0.1 mg/ul) prepared in 24 mM Hepes, pH 7.2, 50 mM NaCl, 1 MM MgCl2. All samples were digested at 50C for 5 min in PK buffer at 23C. […] Although proteinase K is a protein-based inhibitor, RNase inactivation occurs by a very different mechanism than a protein inhibitor such as RIP, since proteinase K digests RNase proteins to peptide fragments, thereby destroying the folded (active) conformation of the enzyme.

[2] = tested on: total RNase activity in spleen lysate; test: RNaseAlert fluorescent assay, spleen lysate; assay type: biochemical, mouse; conditions: 0.5 U/ul RIP
Experimental: (§1) Flash-frozen mouse tissues (5 mg) were dounced in 50 ul of 24 mM Hepes, pH 7.2, 50 mM NaCl, 1 mM MgCl2. RNase activity was measured using Ambion's fluorescent RNaseAlert™ assay ([…] substrate, 10 ug/ml ultrapure BSA) via BMG POLARstar Optima Fluorometer according to the manufacturer's protocol. In addition to measuring total RNase activity, lysates were treated with Ap5A, heat (90 C for 10 min), or 0.5 U/ul RIP. Tissue lysate dilutions: pancreas 1:16,200; liver 1:17; thymus 1:17; kidney 1:17; spleen 1:810; lung 1:810. The data were normalized to maximum RNase activity observed in tissue lysate with kidney being the tissue with the lowest RNase activity and assigned the arbitrary unit of 1. […] However, RIP is specific to RNase A superfamily enzymes, where Ap5A, as a RNA analogue, is expected to be a more general RNase inhibitor.

[3] = tested on: total RNase activity in lung lysate; test: RNaseAlert fluorescent assay, lung lysate; assay type: biochemical, mouse; conditions: 0.5 U/ul RIP
Experimental: as §1

bovine RNase A = biological target: T1, bovine RNase A; test: Intactness of total RNA (RNA LabChip), bovine RNase A; assay type: biochemical; conditions: 0.2u/ul rip, 5 pg/ul bovine rnase a, e. coli total rna, room temperature 4 min
Experimental: A total of 100 pg/ul e. […].
Mouse pancreatic tissue (5 mg) was disrupted in 50 ul of 24 mM Hepes, pH 7.2, 50 mM NaCl, 1 mM MgCl2. The diluted lysate (1:20,000) was pre-incubated with 50 uM Benzopurpurin B (BpB) for 30 sec and then added to 100 ng/ul mouse liver total RNA (Ambion) and incubated at 23 C for an additional 4 min. Samples were quenched in a guanidinium lysis buffer, and the RNA purified via MEGAclear™ MAG-96 and eluted with 20 ul nuclease-free water. […] These experiments were conducted in the same fashion except that 100 uM BpB was employed. The sample (1 ul) was analyzed by 2100 BioAnalyzer software (Agilent) after separation on an RNA LabChip.
Pancreatic tissue (5 mg) was dounced in 50 ul of 24 mM Hepes, pH 7.2, 50 mM NaCl, 1 mM MgCl2. The lysate was diluted (1:20,000) and then pre-incubated with 200 uM of 467929. […] All samples were pre-incubated for 30 sec before being added to 100 ng/ul mouse liver total RNA (Ambion) and incubated at 23C for an additional 4 min. The RNA was then immediately purified via MEGAclear™ MAG-96 and eluted with 20 ul nuclease-free water. The recovered RNA (1 ul) was analyzed by 2100 BioAnalyzer software after separation on an RNA LabChip.

[4] = tested on: total RNase activity in pancreas lysate; test: RNaseAlert fluorescent assay, pancreas lysate; assay type: biochemical, mouse; conditions: Pancreas, 0.5 U/ul RIP
Experimental: as §1
Pancreatic tissue (5 mg) was dounced in 50ul of 24 mM Hepes, pH 7.2, 50 mM NaCl, 1 mM MgCl2. Diluted pancreas lysate (1:12,000) was subjected to a 1/10 volume of negatively charged SP resin. RNase activity of the clarified lysate was measured using. Ambion's fluorescent RNaseAlert™ assay (40 nM substrate, 10 ug/ml ultrapure BSA) via BMG POLARstar Optima, according to the manufacturer's instructions. Resin treatment removed >95% of total RNase activity in diluted pancreas lysate. […]

| Molecule | Fold Reduction ([1]; 1 uL pancreas) | Slope ([1]; 1 uL pancreas) [RFU/sec] | Fold Reduction ([1]; 10 uL pancreas) | Slope ([1]; 10 uL pancreas) [RFU/sec] | Slope ([1]; No pancreas) [RFU/sec] | % Inhibition [2] [%] | Slope/sec Final (After RIP addition) [2] | % Inhibition [3] [%] | Slope/sec Final (After RIP addition) [3] | protection of total RNA from degradation (bovine RNase A) | % Inhibition [4] [%] | Slope/sec Final (After RIP addition) [4] |
| --- | --- | --- | --- | --- | --- | --- | --- | --- | --- | --- | --- | --- |
| B1 | 1283 | 0.0938 | 242 | 0.6074 | 0.0123 |  |  |  |  |  |  |  |
| B2 |  |  |  |  |  | 98.0 | 1.08 | 99.3 | 0.21 | significant protection | 99.7 | 0.17 |
